Experimental data reported in US20190062420A1 (Janssen / Centocor, published 2019).

T1: human FcγRIIB (NM_004001) expressed on cells (human, UniProt P31994 43-310)
T1 sequence: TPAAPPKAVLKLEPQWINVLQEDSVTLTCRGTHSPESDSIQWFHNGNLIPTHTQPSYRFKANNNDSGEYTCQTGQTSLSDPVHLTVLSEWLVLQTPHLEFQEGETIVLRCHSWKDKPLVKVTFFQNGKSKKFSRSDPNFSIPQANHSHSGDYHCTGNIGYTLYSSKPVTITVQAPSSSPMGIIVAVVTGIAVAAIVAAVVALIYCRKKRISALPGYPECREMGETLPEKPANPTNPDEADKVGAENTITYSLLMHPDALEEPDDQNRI

T2: human FcγRIIA (NM_021642) expressed on cells (human, UniProt P12318 36-317)
T2 sequence: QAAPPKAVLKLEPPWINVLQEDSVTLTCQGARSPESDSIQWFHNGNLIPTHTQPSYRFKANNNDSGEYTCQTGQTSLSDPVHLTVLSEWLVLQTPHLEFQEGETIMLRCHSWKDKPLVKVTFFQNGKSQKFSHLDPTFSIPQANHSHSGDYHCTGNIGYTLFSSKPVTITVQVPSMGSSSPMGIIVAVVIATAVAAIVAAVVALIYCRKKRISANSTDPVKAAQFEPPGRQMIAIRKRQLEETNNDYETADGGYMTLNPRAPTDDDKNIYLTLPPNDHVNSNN

T3: FcγRIIB protein (human, UniProt P31994 43-217, biotinylated (SureLINK Biotin Kit) in the ELISA of Example 1)
T3 construct: Soluble/recombinant antigen used in ELISA; also called bt-FcγRIIB; recombinant FcγRIIB protein
T3 sequence: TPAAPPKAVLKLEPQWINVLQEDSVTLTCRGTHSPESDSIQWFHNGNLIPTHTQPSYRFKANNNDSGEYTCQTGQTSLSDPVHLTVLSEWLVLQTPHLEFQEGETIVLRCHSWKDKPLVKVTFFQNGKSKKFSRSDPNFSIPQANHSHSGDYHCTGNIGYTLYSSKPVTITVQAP

B1: OX40SF2IgG2sigma_R2BS29_HC-C (bispecific antibody)
heavy: QVQLVQSGAEVKKPGSSVKVSCKASGYTFKDYTMHWVRQAPGQGLEWIGGIYPNNGGSTYNQNFKDRVTLTADKSTSTAYMELSSLRSEDTAVYYCARMGYHGPHLDFDVWGQGTTVTVSSASTKGPSVFPLAPCSRSTSESTAALGCLVKDYFPEPVTVSWNSGALTSGVHTFPAVLQSSGLYSLSSVVTVPSSNFGTQTYTCNVDHKPSNTKVDKTVERKCCVECPPCPAPPAAASSVFLFPPKPKDTLMISRTPEVTCVVVDVSAEDPEVQFNWYVDGVEVHNAKTKPREEQFNSTFRVVSVLTVLHQDWLNGKEYKCKVSNKGLPSSIEKTISKTKGQPREPQVYTLPPSREEMTKNQVSLTCLVKGFYPSDIAVEWESNGQPENNYKTTPPMLDSDGSFFLYSKLTVDKSRWQQGNVFSCSVMHEALHNHYTQKSLSLSPGKGGGGGSGGGGSGGGGSGGGGSLPAPKNLVVSRVTEDSARLSWTAPDAAFDSFPIYYWEYRVGGEAIVLTVPGSERSYDLTGLKPGTEYFVYINGVKGGEESRPLSAIFTT
light: DIQMTQSPSSLSASVGDRVTITCKASQDVGAAVAWYQQKPGKAPKLLIYWASTRHTGVPSRFSGSGSGTDFTLTISSLQPEDFATYYCQQYINYPLTFGGGTKVEIKRTVAAPSVFIFPPSDEQLKSGTASVVCLLNNFYPREAKVQWKVDNALQSGNSQESVTEQDSKDSTYSLSSTLTLSKADYEKHKVYACEVTHQGLSSPVTKSFNRGEC
notes: mAbtyrin: anti-OX40 antibody OX40SF2, effector silent IgG2sigma, with linker and R2BS29 FN3 domain at the C-terminus of the heavy chain; also called mAbtyrin
B2: OX40SF2IgG2sigma (antibody)
heavy: QVQLVQSGAEVKKPGSSVKVSCKASGYTFKDYTMHWVRQAPGQGLEWIGGIYPNNGGSTYNQNFKDRVTLTADKSTSTAYMELSSLRSEDTAVYYCARMGYHGPHLDFDVWGQGTTVTVSSASTKGPSVFPLAPCSRSTSESTAALGCLVKDYFPEPVTVSWNSGALTSGVHTFPAVLQSSGLYSLSSVVTVPSSNFGTQTYTCNVDHKPSNTKVDKTVERKCCVECPPCPAPPAAASSVFLFPPKPKDTLMISRTPEVTCVVVDVSAEDPEVQFNWYVDGVEVHNAKTKPREEQFNSTFRVVSVLTVLHQDWLNGKEYKCKVSNKGLPSSIEKTISKTKGQPREPQVYTLPPSREEMTKNQVSLTCLVKGFYPSDIAVEWESNGQPENNYKTTPPMLDSDGSFFLYSKLTVDKSRWQQGNVFSCSVMHEALHNHYTQKSLSLSPGK
light: B1 light
notes: Anti-OX40 antibody, IgG2 sigma isotype (effector silent Fc: V234A, G237A, P238S, H268A, V309L, A330S, P331S against wild type IgG2); control without FN3 domain; also called parental antibody; parental OX40 antibody
B3: OX40SF2IgG1 (antibody)
heavy: not shown
light: B1 light
notes: Anti-OX40 antibody, wild-type IgG1; control without FN3 domain

Assays:
[1] = biological target: T1, human FcγRIIB (NM_004001) expressed on …; assay: cell-based or functional assay
[2] = biological target: T1, human FcγRIIB (NM_004001) expressed on …; assay: cell-based or functional assay; remark: listed apart in the source
[3] = biological target: T2, human FcγRIIA (NM_021642) expressed on …; assay: cell-based or functional assay
[4] = biological target: T4, human FcγRI (NM_000566) expressed on cells (human, UniProt P12314 16-374); assay: flow cytometry; Expi293F cells transfected with FcγRI
T4 construct: Transiently expressed on Expi293F cells
Experimental: (§1) Plasmids expressing cDNAs encoding human FcγRI (NM_000566) (SEQ ID NO: 44), FcγRIIA (NM_021642) (SEQ ID NO: 2), FcγRIIB (NM_004001) (SEQ ID NO: 3), and FcγRIIIA (NM_000569) (SEQ ID NO: 45) (Origene) were transiently transfected into Expi293F cells by ExpiFectamine293 transfection kit (Life Technologies). Flow cytometry assays were performed 48 h after transfection.
(§2) 2×10⁵ cells per well were seeded in 96-well plate and blocked in BSA Stain Buffer (BD Biosciences, San Jose, USA) for 30 min at 4° C. Cells were incubated with test mAbtyrin on ice for 1.5 h at 4° C. After being washed twice with BSA stain buffer, the cells were incubated with R-PE labeled anti-human or anti-mouse IgG secondary antibody (Jackson Immunoresearch Laboratories) for 45 min at 4° C. The cells were washed twice in stain buffer and then resuspended in 150 μL of Stain Buffer containing 1:200 diluted DRAQ7 live/dead stain (Cell Signaling Technology, Danvers, USA). PE and DRAQ7 signals of the stained cells were detected by Miltenyi MACSQuant flow cytometer (Miltenyi Biotec, Auburn, USA) using B2 and B4 channel respectively. Live cells were gated on DRAQ7 exclusion and the geometric mean fluorescence signals were determined for at least 10,000 live events collected. FlowJo software (Tree Star) was used for analysis. Data was plotted as the logarithm of antibody concentration versus mean fluorescence signals. Nonlinear regression analysis was performed by GraphPad Prism 6 (GraphPad Software, Inc.) and EC₅₀ values were calculated.

[5] = biological target: T2, human FcγRIIA (NM_021642) expressed on …; assay: flow cytometry; Expi293F cells transfected with FcγRIIA
Experimental: as §1, §2

[6] = biological target: T1, human FcγRIIB (NM_004001) expressed on …; assay: flow cytometry; Expi293F cells transfected with FcγRIIB
Experimental: as §1, §2

FcγRIIB protein = biological target: T3, FcγRIIB protein; assay: ELISA; FcγRIIB protein coated on plate, anti-human IgG-HRP detection
Experimental: Effect of the mAbtyrins on T cell activation was evaluated. Briefly, recombinant FcγRIIB or FcγRIIA protein was coated on the plate to provide the crosslinking activity. For T cell activation assay, 100 μL of 30 ng/mL anti-CD3 antibody (OKT3) and 1 μg/mL FcγRIIB or FcγRIIA protein in DPBS were coated in U-bottomed 96-well tissue culture plate overnight. CD4 positive T cells were isolated from PBMC by negative selection. OX40 expression was induced by culturing the isolated T cells in the presence of 1 μg/mL PHA overnight. On the assay day, the coating solution in the plate were aspirated and 150 μL RPMI media was added to block the plate. The cultured T cells were washed three times by RPMI culture media and between 25,000 to 50,000 CD4 positive T cells were seeded in each well in the assay plate. Test mAbtyrins were added to the cells and the plate was incubated for 3 days. T cell activation was assessed by the induction of IFNγ or TNFα production, which was quantitated by human IFNγ or TNFα ELISA detection kit (Biolegend). Prior to T cell activation assay, the binding affinity of mAbtyrins to immobilized FcγRIIB or FcγRIIA protein were evaluated by an ELISA assay. […] The binding of mAbtyrins to immobilized FcγRIIB or FcγRIIA protein were detected by HRP-conjugated anti-Human IgG(γ) secondary antibody and quantitated by ELISA assay using TMB substrate.

T4 sequence (P12314 16-374 limits assumed): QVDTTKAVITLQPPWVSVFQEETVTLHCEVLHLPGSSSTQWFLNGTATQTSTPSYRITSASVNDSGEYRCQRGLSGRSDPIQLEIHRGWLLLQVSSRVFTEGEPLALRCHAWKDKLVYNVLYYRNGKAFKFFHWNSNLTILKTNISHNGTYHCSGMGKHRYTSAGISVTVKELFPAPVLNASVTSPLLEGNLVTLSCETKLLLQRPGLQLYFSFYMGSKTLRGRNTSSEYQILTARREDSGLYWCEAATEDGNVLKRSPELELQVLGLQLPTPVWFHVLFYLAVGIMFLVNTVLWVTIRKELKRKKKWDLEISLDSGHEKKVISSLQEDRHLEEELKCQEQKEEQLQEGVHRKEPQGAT

| Binder | % activity at 1 µg/ml with Raji cells (HEK-Blue: OX40 NF-κB reporter, relative to 1 µg/ml OX40 ligand) [1] [%] | fold of agonism enhancement upon crosslinking (Raji cells) [1] [fold] | fold of agonism enhancement upon crosslinking (Daudi cells) [2] [fold] | % OX40 cell killed by macrophages (ADCP, 1 µg/ml) [3] [%] | EC50 [4] [µg/mL] | EC50 [5] [µg/mL] | EC50 [6] [µg/mL] | binding result (FcγRIIB protein) |
| --- | --- | --- | --- | --- | --- | --- | --- | --- |
| B1 | 86 | 15 | 45 | 88 | > 10 | 0.091 | 0.512 | – |
| B2 | 2.2 | 1 | 1 | 12 | – | > 10 | > 10 | no binding |
| B3 | – | – | – | – | 0.494 | – | – | no binding |
